Source: patent publication US20250011428A1 (Novartis, published 2025)

Columns and labels:
recombinant human hFcRn = biological target: T1, recombinant human hFcRn (human, UniProt P55899 24-297; P61769 21-119); assay: SPR Biacore T200; IgG amine-coupled on CM5, hFcRn as analyte; response normalized to parental (=100)
T1 construct: FcRn is normally a heterodimer with it
Method: (§1) Kinetics and binding capacity were measured on a BIAcore® T200 instrument (GE Healthcare, Glattbrugg, Switzerland) at room temperature, with proteins diluted in running buffer 10 mM NaP, 150 mM NaCl, 0.05% Tween 20, pH7.6. A CM5 sensor chip (Sensor Chip SA, GE Healthcare Life Sciences) was used to immobilized engineered immunoglobulins by amine coupling. Then, recombinant human hFcγR1a, or recombinant human hFcγR3a (F158V), or recombinant human hFcRn, or hC1q was used as the analyte.
(§2) Binding data were acquired by subsequent injection of analyte dilution series on the reference and measuring flow cells. Zero concentration samples (running buffer only) were included to allow double referencing during data evaluation. For data evaluation, doubled referenced sensorgrams were analyzed and the maximum response reached during the experiment was monitored. Maximum response describes the binding capacity of the surface in terms of the response at saturation. Finally, measured maximum responses were normalized to the one measured using parental immunoglobulin (not engineered).

hC1q = hC1q (human, UniProt P02745 23-245; P02746 28-253; P02747 29-245); assay: SPR Biacore T200; IgG amine-coupled on CM5, hC1q as analyte; response normalized to parental (=100)
Method: as §1, §2

hCD3epsilon-FC antigen [1] = biological target: T2, hCD3epsilon-FC antigen (human, UniProt P07766 23-126); assay: SPR Biacore T200; hCD3epsilon-FC amine-coupled on CM5, IgG as analyte; set-up: unit not given here
T2 construct: immobilized by amine coupling on CM5; also called human CD3epsilon

hCD3epsilon-FC antigen [2] = biological target: T2, hCD3epsilon-FC antigen; assay: SPR Biacore T200; hCD3epsilon-FC amine-coupled on CM5, IgG as analyte; 1:1 model, apparent KD (bivalent analyte)
Method: A CM5 sensor chip (Sensor Chip SA, GE Healthcare Life Sciences) was used to immobilize hCD3epsilon-FC antigen by amine coupling. Then, engineered anti-CD3 hIgG1 were used as the analyte.
Binding data were acquired by subsequent injection of analyte dilution series on the reference and measuring flow cells. Zero concentration samples (running buffer only) were included to allow double referencing during data evaluation. For data evaluation, doubled referenced sensorgrams were analyzed by applying a 1:1 binding model analysis to generate the equilibrium dissociation constant (KD). Binding constant described Table 7 are considered as apparent KD since immunoglobulins used as analyte are bivalent for the immobilized antigen. In addition, maximum response reached during the experiment was monitored. Maximum response describes the binding capacity of the surface in terms of the response at saturation. Finally, measured maximum responses were normalized to the one measured using parental immunoglobulin (not engineered).

[3] = biological target: T3, recombinant human hFcγR1a (human, UniProt P12314 16-288, limits assumed); assay: SPR Biacore T200; IgG amine-coupled on CM5, receptor as analyte; response normalized to parental (=100);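 further: measured at room temperature in pH 7.6 phosphate buffer with Tween 20, double-referenced sensorgrams, maximum response taken as binding capacity at saturation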
T3 construct: recombinant, analyte in SPR; also called FcγRI
Method: as §1, §2

[4] = biological target: T4, recombinant human hFcγR3a (F158V) (human, UniProt P08637 17-208); assay: as above
T4 construct: also called FcγRIII
T4 sequence (P08637 17-208 F176V): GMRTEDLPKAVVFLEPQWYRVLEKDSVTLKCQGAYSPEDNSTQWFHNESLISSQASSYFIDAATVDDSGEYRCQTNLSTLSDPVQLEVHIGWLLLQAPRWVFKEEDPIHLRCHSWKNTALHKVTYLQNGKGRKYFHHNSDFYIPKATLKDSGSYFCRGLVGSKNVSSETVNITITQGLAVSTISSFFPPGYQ
Method: as §1, §2

T1 sequence (P55899 24-297 limits assumed, chain 1 of 2): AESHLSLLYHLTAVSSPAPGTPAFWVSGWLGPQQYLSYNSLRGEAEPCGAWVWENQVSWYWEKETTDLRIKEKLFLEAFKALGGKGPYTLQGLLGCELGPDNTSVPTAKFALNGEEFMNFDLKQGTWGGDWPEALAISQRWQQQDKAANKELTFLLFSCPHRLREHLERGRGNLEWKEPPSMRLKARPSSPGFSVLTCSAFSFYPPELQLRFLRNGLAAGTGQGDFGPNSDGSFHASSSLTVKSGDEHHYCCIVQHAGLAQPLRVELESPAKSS
T1 sequence (P61769 21-119 limits assumed, chain 2 of 2): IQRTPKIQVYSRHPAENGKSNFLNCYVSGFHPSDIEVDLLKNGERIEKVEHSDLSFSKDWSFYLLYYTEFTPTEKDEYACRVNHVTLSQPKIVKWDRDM
T2 sequence (P07766 23-126 limits assumed): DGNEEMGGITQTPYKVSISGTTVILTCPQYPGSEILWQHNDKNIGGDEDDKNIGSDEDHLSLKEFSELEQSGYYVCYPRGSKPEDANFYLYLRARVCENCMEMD
hC1q, sequence (P02745 23-245 limits assumed, chain 1 of 3): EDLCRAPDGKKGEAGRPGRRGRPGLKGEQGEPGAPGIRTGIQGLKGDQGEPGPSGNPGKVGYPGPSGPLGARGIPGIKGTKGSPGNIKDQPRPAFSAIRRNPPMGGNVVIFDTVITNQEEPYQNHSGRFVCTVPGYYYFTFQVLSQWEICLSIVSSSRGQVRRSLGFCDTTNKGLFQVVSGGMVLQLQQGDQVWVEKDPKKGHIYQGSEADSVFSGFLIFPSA
hC1q, sequence (P02746 28-253 limits assumed, chain 2 of 3): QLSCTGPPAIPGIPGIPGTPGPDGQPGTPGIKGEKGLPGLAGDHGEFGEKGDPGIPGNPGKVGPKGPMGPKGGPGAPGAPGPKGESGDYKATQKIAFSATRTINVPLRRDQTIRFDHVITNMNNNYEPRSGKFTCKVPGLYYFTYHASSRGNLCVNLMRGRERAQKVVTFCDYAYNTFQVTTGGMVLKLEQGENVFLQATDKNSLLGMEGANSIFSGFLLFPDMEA
hC1q, sequence (P02747 29-245 limits assumed, chain 3 of 3): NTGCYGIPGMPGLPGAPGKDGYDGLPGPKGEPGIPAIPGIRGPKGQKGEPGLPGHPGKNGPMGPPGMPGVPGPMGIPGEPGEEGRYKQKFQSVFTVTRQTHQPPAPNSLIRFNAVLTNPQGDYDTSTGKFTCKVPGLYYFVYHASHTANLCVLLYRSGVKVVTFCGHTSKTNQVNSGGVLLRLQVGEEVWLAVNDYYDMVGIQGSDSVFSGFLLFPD
T3 sequence (P12314 16-288 limits assumed): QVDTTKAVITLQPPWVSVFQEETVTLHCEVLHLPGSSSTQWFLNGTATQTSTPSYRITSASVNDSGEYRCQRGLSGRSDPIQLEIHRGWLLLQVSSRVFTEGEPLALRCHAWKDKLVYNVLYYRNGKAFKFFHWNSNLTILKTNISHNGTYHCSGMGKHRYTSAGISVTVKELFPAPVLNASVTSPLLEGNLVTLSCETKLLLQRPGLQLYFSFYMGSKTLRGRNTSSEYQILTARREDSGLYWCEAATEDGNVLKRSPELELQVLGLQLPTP

B1: CD3_WT (antibody, human IgG1, lambda)
heavy: not shown
light: QAVVTQEPSLTVSPGGTVTLTCRSSTGAVTTSNYANWVQQKPGQAPRGLIGGTNKRAPWTPARFSGSLLGDKAALTLSGAQPEDEAEYFCALWYSNLWVFGGGTKLTVLGQPKAAPSVTLFPPSSEELQANKATLVCLISDFYPGAVTVAWKADSSPVKAGVETTTPSKQSNNKYAASSYLSLTPEQWKSHRSYSCQVTHEGSTVEKTVAPTECS
notes: hIgG1, no Fc mutation; produced in HEK-293T-17SF; also called parental anti-CD3 IgG1; anti-CD3 monospecific hIgG1
Maximum response at 1840 nM hFcRn (RU) (recombinant human hFcRn): 100 RU | Maximum response at 20 nM hC1q (RU) (hC1q): 100 RU | Maximum response at 125 nM hIgG1 (hCD3epsilon-FC antigen [1]): 392 | Kd (hCD3epsilon-FC antigen [2]): 2.32 nM | Maximum response at 100 nM hFcγR1a (RU) [3]: 100 RU | Maximum response at 300 nM hFcγR3a F158V (RU) [4]: 100 RU

B2: CD3_1 (antibody, human IgG1, lambda)
heavy: EVQLVESGGGLVQPGGSLKLSCAASGFTFNTYAMNWVRQASGKGLEWVGRIRSKYNNYATYYADSVKDRFTISRDDSKSTLYLQMNSLKTEDTAVYYCVRHGNFGNSYVSWFAYWGQGTLVTVSSASTKGPSVFPLAPSSKSTSGGTAALGCLVKDYFPEPVTVSWNSGALTSGVHTFPAVLQSSGLYSLSSVVTVPSSSLGTQTYICNVNHKPSNTKVDKRVEPKSCDKTHTCPPCPAPELCCHPRVFLFPPKPKDTLMISRTPEVTCVVTGLRDEDPEVKFNWYVDGVEVHNAKTKPREEQYCGCYSVVSVLTVLHQDWLNGKEYKCKVSNKALPAPIEKTISKAKGQPREPQVYTLPPSRDELTKNQVSLTCLVKGFYPSDIAVEWESNGQPENNYKTTPPVLDSDGSFFLYSKLTVDKSRWQQGNVFSCSVMHEALHNHYTQKSLSLSPGK
light: QAVVTQEPSLTVSPGGTVTLTCRSSTGAVTTSNYANWVQQKPGQAPRGLIGGTNKRAPWTPARFSGSLLGDKAALTLSGAQPEDEAEYFCALWYSNLWVFGGGTKLTVLGQPKAAPSVTLFPPSSEELQANKATLVCLISDFYPGAVTVAWKADSSPVKAGVETTTPSKQSNNKYAASSYLSLTPEQWKSHRSYSCQVTHEGSTVEKTVAPTECS
notes: hIgG1
Maximum response at 20 nM hC1q (RU) (hC1q): 5 RU | Maximum response at 125 nM hIgG1 (hCD3epsilon-FC antigen [1]): 371 | Kd (hCD3epsilon-FC antigen [2]): 2.06 nM | Maximum response at 100 nM hFcγR1a (RU) [3]: 2 RU | Maximum response at 300 nM hFcγR3a F158V (RU) [4]: 10 RU

B3: CD3_7 (antibody, human IgG1, lambda)
heavy: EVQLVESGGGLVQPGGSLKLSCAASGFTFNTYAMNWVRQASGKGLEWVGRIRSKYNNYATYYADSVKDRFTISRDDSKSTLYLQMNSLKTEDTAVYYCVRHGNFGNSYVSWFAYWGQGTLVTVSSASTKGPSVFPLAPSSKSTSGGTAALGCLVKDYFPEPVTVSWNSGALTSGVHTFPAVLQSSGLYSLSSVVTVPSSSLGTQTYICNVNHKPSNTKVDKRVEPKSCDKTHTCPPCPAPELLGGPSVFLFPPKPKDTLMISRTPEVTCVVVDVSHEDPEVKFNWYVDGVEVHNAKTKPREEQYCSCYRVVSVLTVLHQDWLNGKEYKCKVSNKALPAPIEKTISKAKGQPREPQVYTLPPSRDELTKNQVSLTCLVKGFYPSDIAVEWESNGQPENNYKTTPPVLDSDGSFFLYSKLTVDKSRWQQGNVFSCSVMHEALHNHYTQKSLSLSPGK
light: QAVVTQEPSLTVSPGGTVTLTCRSSTGAVTTSNYANWVQQKPGQAPRGLIGGTNKRAPWTPARFSGSLLGDKAALTLSGAQPEDEAEYFCALWYSNLWVFGGGTKLTVLGQPKAAPSVTLFPPSSEELQANKATLVCLISDFYPGAVTVAWKADSSPVKAGVETTTPSKQSNNKYAASSYLSLTPEQWKSHRSYSCQVTHEGSTVEKTVAPTECS
notes: hIgG1
Maximum response at 1840 nM hFcRn (RU) (recombinant human hFcRn): 80 RU | Maximum response at 20 nM hC1q (RU) (hC1q): 2 RU | Maximum response at 125 nM hIgG1 (hCD3epsilon-FC antigen [1]): 367 | Kd (hCD3epsilon-FC antigen [2]): 2.27 nM | Maximum response at 100 nM hFcγR1a (RU) [3]: 21 RU | Maximum response at 300 nM hFcγR3a F158V (RU) [4]: 5 RU

B4: CD3_6 (antibody, human IgG1, lambda)
heavy: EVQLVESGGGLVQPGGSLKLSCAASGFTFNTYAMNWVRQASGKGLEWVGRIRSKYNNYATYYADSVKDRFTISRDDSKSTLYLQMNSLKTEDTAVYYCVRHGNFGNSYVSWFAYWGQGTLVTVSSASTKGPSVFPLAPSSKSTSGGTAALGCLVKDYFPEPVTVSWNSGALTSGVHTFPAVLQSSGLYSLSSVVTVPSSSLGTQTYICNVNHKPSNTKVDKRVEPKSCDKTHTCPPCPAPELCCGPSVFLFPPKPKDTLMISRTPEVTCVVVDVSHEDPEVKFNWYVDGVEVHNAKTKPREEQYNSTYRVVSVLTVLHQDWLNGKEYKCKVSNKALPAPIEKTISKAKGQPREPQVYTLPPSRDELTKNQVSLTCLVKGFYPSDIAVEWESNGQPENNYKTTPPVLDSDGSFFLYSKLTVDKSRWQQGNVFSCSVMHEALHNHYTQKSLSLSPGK
light: QAVVTQEPSLTVSPGGTVTLTCRSSTGAVTTSNYANWVQQKPGQAPRGLIGGTNKRAPWTPARFSGSLLGDKAALTLSGAQPEDEAEYFCALWYSNLWVFGGGTKLTVLGQPKAAPSVTLFPPSSEELQANKATLVCLISDFYPGAVTVAWKADSSPVKAGVETTTPSKQSNNKYAASSYLSLTPEQWKSHRSYSCQVTHEGSTVEKTVAPTECS
notes: hIgG1
Maximum response at 1840 nM hFcRn (RU) (recombinant human hFcRn): 136 RU | Maximum response at 20 nM hC1q (RU) (hC1q): 33 RU | Maximum response at 125 nM hIgG1 (hCD3epsilon-FC antigen [1]): 338 | Kd (hCD3epsilon-FC antigen [2]): 2.38 nM | Maximum response at 100 nM hFcγR1a (RU) [3]: 13 RU | Maximum response at 300 nM hFcγR3a F158V (RU) [4]: 17 RU
